Experimental data: patent publication US20250230244A1 (University of Texas, published 2025)
Each block holds one binder with its values, some of them ahead of it.

Columns and labels:
B7-H3 peptide 4 [1] = target: T1, B7-H3 peptide 4 (human); test: biolayer interferometry (Octet) traces, concentrations not printed [Peptide 4, column ChT-1A5]
T1 peptide: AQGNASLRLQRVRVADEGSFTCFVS
Experimental: (§1) The Octet RED384 System (FortdBio) was used to further characterize the chimeric and murine clones. The kinetics of the clones were tested by measuring the interaction between the antibody and its target by bio-layer interferometry technology.
(§2) The inventors generated 10 peptides from the extracellular domain of B7-H3 with a span of 25 amino acids and an overlap of 5 amino acids with each subsequent peptide.

B7-H3 peptide 10 = target: T2, B7-H3 peptide 10 (human); test: biolayer interferometry (Octet), epitope mapping table [panel D, row Peptide 10]
T2 peptide: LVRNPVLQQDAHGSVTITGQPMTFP
Experimental: as §1, §2

B7-H3 peptide 1 [2] = target: T3, B7-H3 peptide 1 (human); test: biolayer interferometry (Octet) traces, concentrations not printed [Peptide 1, column ChT-1A5]
T3 peptide: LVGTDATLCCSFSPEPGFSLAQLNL

B7-H3 peptide 7 = target: T4, B7-H3 peptide 7 (human); test: biolayer interferometry (Octet), epitope mapping table [panel D, row Peptide 7]
T4 peptide: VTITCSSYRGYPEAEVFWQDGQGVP
Experimental: as §1, §2

B7-H3 peptide 3 [3] = target: T5, B7-H3 peptide 3 (human); test: biolayer interferometry (Octet) traces, concentrations not printed [Peptide 3, column ChT-1A5]
T5 peptide: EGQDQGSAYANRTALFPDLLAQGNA

B7-H3 peptide 8 = target: T6, B7-H3 peptide 8 (human); test: biolayer interferometry (Octet), epitope mapping table [panel D, row Peptide 8]
T6 peptide: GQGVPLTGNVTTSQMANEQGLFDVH
Experimental: as §1, §2

B7-H3 peptide 2 [4] = target: T7, B7-H3 peptide 2 (human); test: biolayer interferometry (Octet) traces, concentrations not printed [Peptide 2, column ChT-1A5]
T7 peptide: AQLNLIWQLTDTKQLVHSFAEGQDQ

B7-H3 peptide 6 [5] = target: T8, B7-H3 peptide 6 (human); test: biolayer interferometry (Octet), epitope mapping table [panel D, row Peptide 6]
T8 peptide: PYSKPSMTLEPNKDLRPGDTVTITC
Experimental: as §1, §2

B7-H3 peptide 1 [6] = target: T3, B7-H3 peptide 1; test: biolayer interferometry (Octet), epitope mapping table [panel D, row Peptide 1]
Experimental: as §1, §2

B7-H3 peptide 5 [7] = target: T9, B7-H3 peptide 5 (human); test: biolayer interferometry (Octet), number beside the raw traces [panel D, T-1A5-peptide 5]
T9 construct: Said to lie in the IgV domain spanning through the FG loop
T9 peptide: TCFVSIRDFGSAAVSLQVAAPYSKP

B7-H3 peptide 4 [8] = target: T1, B7-H3 peptide 4; test: biolayer interferometry (Octet) traces, concentrations not printed [Peptide 4, column T-1A5]
B7-H3 peptide 3 [9] = target: T5, B7-H3 peptide 3; test: biolayer interferometry (Octet) traces, concentrations not printed [Peptide 3, column T-1A5]
B7-H3 peptide 2 [10] = target: T7, B7-H3 peptide 2; test: biolayer interferometry (Octet) traces, concentrations not printed [Peptide 2, column T-1A5]
Experimental: as §1, §2

B7-H3 peptide 6 [11] = target: T8, B7-H3 peptide 6; test: biolayer interferometry (Octet) traces, concentrations not printed [continued), Peptide 6, left column]
Experimental: as §1, §2

B7-H3 peptide 5 [12] = target: T9, B7-H3 peptide 5; test: biolayer interferometry (Octet), epitope mapping with B7-H3 peptides [panel D, row Peptide 5]
Experimental: as §1, §2

binding result (B7-H3 peptide 4 [1]): no binding | binding result (B7-H3 peptide 10): no binding | binding result (B7-H3 peptide 1 [2]): no binding | binding result (B7-H3 peptide 7): no binding | binding result (B7-H3 peptide 3 [3]): no binding | binding result (B7-H3 peptide 8): no binding | binding result (B7-H3 peptide 2 [4]): no binding | binding result (B7-H3 peptide 6 [5]): no binding
B1: human-mouse chimeric anti-B7-H3 antibody ChT-1A5 (antibody, human IgG1, kappa)
heavy: not shown
light: QIVLIQSPAIMSASPGEKVTMTCSASSSISYMYWYQQKPGTSPKRWIFETSKLASGVPARFSGSGSGTSYSLTISSMEAEDAATYYCHQRSSYPTFGGGTKLEIKRTVAAPSVFIFPPSDEQLKSGTASVVCLLNNFYPREAKVQWKVDNALQSGNSQESVTEQDSKDSTYSLSSTLTLSKADYEKHKVYACEVTHQGLSSPVTKSFNRGEC
notes: also called chimeric T-1A5 antibody

binding result (B7-H3 peptide 1 [6]): no binding | Kd (B7-H3 peptide 5 [7]): 151 nM | binding result (B7-H3 peptide 10): no binding | binding result (B7-H3 peptide 7): no binding | binding result (B7-H3 peptide 8): no binding | binding result (B7-H3 peptide 4 [8]): no binding | binding result (B7-H3 peptide 3 [9]): no binding | binding result (B7-H3 peptide 2 [10]): no binding | binding result (B7-H3 peptide 6 [11]): no binding | Kd (B7-H3 peptide 5 [12]): 151 nM
B2: anti-B7-H3 monoclonal antibody T-1A5 (mouse, isotype IgG1) (antibody)
heavy: QVQLQQSGAELVKPGASVKLSCKASGYTFTSYDINWVRQRPEQGLEWIGWIFPGDDTTNYNENFKGKATLTADKSSSTAYMQLTRLTSEDSAVFFCARSVGFDYWGQGTTLTVSSAKTTPPSVYPLAPGSAAQTNSMVTLGCLVKGYFPEPVTVTWNSGSLSSGVHTFPAVLQSDLYTLSSSVTVPSSTWPSETVTCNVAHPASSTKVDKKIVPRDCGCKPCICTVPEVSSVFIFPPKPKDVLTITLTPKVTCVVVDISKDDPEVQFSWFVDDVEVHTAQTQPREEQFNSTFRSVSELPIMHQDWLNGKEFKCRVNSAAFPAPIEKTISKTKGRPKAPQVYTIPPPKEQMAKDKVSLTCMITDFFPEDITVEWQWNGQPAENYKNTQPIMDTDGSYFVYSKLNVQKSNWEAGNTFTCSVLHEGLHNHHTEKSLSHSPGK
light: QIVLIQSPAIMSASPGEKVTMTCSASSSISYMYWYQQKPGTSPKRWIFETSKLASGVPARFSGSGSGTSYSLTISSMEAEDAATYYCHQRSSYPTFGGGTKLEIKRADAAPTVSIFPPSSEQLTSGGASVVCFLNNFYPKDINVKWKIDGSERQNGVLNSWTDQDSKDSTYSMSSTLTLTKDEYERHNSYTCEATHKTSTSPIVKSFNRNEC
notes: also called T-1A5A10; mAb T-1A5
